tested on: Escherichia coli TOP10; experiment: shrunken log2 fold change of peptide-encoding DNA abundance (4.5 h post-induction vs induction); higher = less antimicrobial activity (less host growth inhibition); details: time post-induction: 4.5 h; library: site-saturation at positions 5, 18, 19, 20
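Note: peptides expressed intracellularly from a pBAD plasmid library in pooled LB shake-flask culture, induced with 0.3% L-arabinose, DNA abundance read by NGS, three biological replicates, DESeq2 with apeglm shrinkage.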

Sequence	shrunken log2 fold change
RRIRSRPPRLPRPRPRPHDVPRP	-0.0229
RRIRQRPPRLPRPRPRPVSTPRP	-0.0279
RRIRNRPPRLPRPRPRPFFKPRP	0.0559
RRIRIRPPRLPRPRPRPLEAPRP	-0.118
RRIRMRPPRLPRPRPRPADIPRP	0.067
RRIRGRPPRLPRPRPRPCLAPRP	0.599
RRIRKRPPRLPRPRPRPCGPPRP	-0.0191
RRIRQRPPRLPRPRPRPFMLPRP	-0.278
RRIRQRPPRLPRPRPRPERLPRP	-0.0028
RRIRHRPPRLPRPRPRPCQGPRP	-0.00822
RRIRIRPPRLPRPRPRPRCEPRP	-0.0571
RRIRCRPPRLPRPRPRPQCFPRP	-0.187
RRIRWRPPRLPRPRPRPRKYPRP	0.0119
RRIRWRPPRLPRPRPRPMHPPRP	0.224
RRIRWRPPRLPRPRPRPLYKPRP	-0.849
RRIRPRPPRLPRPRPRPCGVPRP	0.205
RRIRGRPPRLPRPRPRPGRIPRP	0.153
RRIRPRPPRLPRPRPRPRMEPRP	0.197
RRIRNRPPRLPRPRPRPWTPPRP	-0.0926
RRIRDRPPRLPRPRPRPKFHPRP	-0.362
RRIRRRPPRLPRPRPRPVWHPRP	0.278
RRIRFRPPRLPRPRPRPPDCPRP	0.191
RRIRMRPPRLPRPRPRPRNIPRP	0.0054
RRIRNRPPRLPRPRPRPHTRPRP	0.0907
RRIRKRPPRLPRPRPRPNETPRP	0.118

Sequence	shrunken log2 fold change
RRIRDRPPRLPRPRPRPPSHPRP	-0.203
RRIRMRPPRLPRPRPRPTMFPRP	0.137
RRIRNRPPRLPRPRPRPTRIPRP	-0.183
RRIRMRPPRLPRPRPRPWPSPRP	0.034
RRIRSRPPRLPRPRPRPNKHPRP	-0.507
RRIRFRPPRLPRPRPRPSIGPRP	-0.139
RRIRDRPPRLPRPRPRPKYTPRP	-0.214
RRIRGRPPRLPRPRPRPAFMPRP	0.585
RRIRLRPPRLPRPRPRPYEHPRP	-0.583
RRIRVRPPRLPRPRPRPLGTPRP	0.188
RRIRWRPPRLPRPRPRPHAVPRP	0.172
RRIRGRPPRLPRPRPRPCGFPRP	1.25
RRIRRRPPRLPRPRPRPPTTPRP	0.445
RRIRPRPPRLPRPRPRPMCNPRP	-0.075
RRIRHRPPRLPRPRPRPFPKPRP	0.0904
RRIRFRPPRLPRPRPRPELEPRP	0.537
RRIRARPPRLPRPRPRPVRDPRP	0.315
RRIRMRPPRLPRPRPRPAGDPRP	0.882
RRIRERPPRLPRPRPRPSGHPRP	-0.289
RRIRGRPPRLPRPRPRPYDAPRP	-0.317
RRIRWRPPRLPRPRPRPVLEPRP	0.227
RRIRLRPPRLPRPRPRPKHHPRP	-0.296
RRIRPRPPRLPRPRPRPWMTPRP	0.0158
RRIRPRPPRLPRPRPRPPLQPRP	0.327
RRIRYRPPRLPRPRPRPHYDPRP	-0.557

Sequence	shrunken log2 fold change
RRIRMRPPRLPRPRPRPRWLPRP	0.459
RRIRLRPPRLPRPRPRPCELPRP	-0.358
RRIRHRPPRLPRPRPRPKPMPRP	0.223
RRIRARPPRLPRPRPRPDVAPRP	1.35
RRIRHRPPRLPRPRPRPFSPPRP	0.0457
RRIRRRPPRLPRPRPRPHPTPRP	0.563
RRIRYRPPRLPRPRPRPRSMPRP	-0.622
RRIRKRPPRLPRPRPRPPTHPRP	0.42
RRIRPRPPRLPRPRPRPQMAPRP	0.129
RRIRLRPPRLPRPRPRPTFHPRP	0.258
RRIRARPPRLPRPRPRPRCEPRP	0.416
RRIRFRPPRLPRPRPRPLKDPRP	-0.276
RRIRARPPRLPRPRPRPLVLPRP	0.157
RRIRRRPPRLPRPRPRPCWAPRP	0.153
RRIRQRPPRLPRPRPRPQTKPRP	-0.133
RRIRARPPRLPRPRPRPDKSPRP	-0.169
RRIRFRPPRLPRPRPRPMRPPRP	0.654
RRIRDRPPRLPRPRPRPSAIPRP	0.0484
RRIRPRPPRLPRPRPRPWPPPRP	0.504
RRIRIRPPRLPRPRPRPWNYPRP	0.0299
RRIRYRPPRLPRPRPRPLDIPRP	-1.69
RRIRIRPPRLPRPRPRPWKQPRP	-0.00674
RRIRERPPRLPRPRPRPYNLPRP	-0.321
RRIRHRPPRLPRPRPRPHQSPRP	-0.0258
RRIRKRPPRLPRPRPRPSPLPRP	0.446
